Data on 77 sequences can be found in the supplement of paper PMC7877785.

The data set in a line: self-splicing fitness, log relative to wild type (ln ratio); higher = more splicing; Tetrahymena group I intron in knt gene, E. coli kanamycin selection, DiMSum; sequences stand for … in CUCUCU…GGAGGGAAAAGUUAUCAGGCAUGCACCUGGUAGCUAGUCUUUAAACCAAUAGAUUGCAUCGGUUUAAAAGGCAAGACCGUCAAAUUGCGGGAAAGGGGUCAACAGCCGUUCAGUACCAAGUCUCAGGGGAAACUUUGAGAUGGCCUUGCAAAGGGUAUGGUAAUAAGCUGACGGACAUGGUCCUAACCACGCAGCCAAGUCCUAAGUCAACAGAUCUUCUGUUGAUAUGGAUGCAGUUCACAGACUAAAUGUCGGUCGGGGAAGAUGUAUUCUUCUCAUAAGAUAUAGUCGGACCUCUCCUUAAUGGGAGCUAGCGGAUGAAGUGAUGCAACACUGGAGCCGCUGGGAACUAAUUUGUAUGCGAAAGUAUAUUGAUUAGUUUUGGAGUACUCGUGGUCG
The gist of the method:
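A randomised library covering all eight P1ex-region intron nucleotides was built with the intron in the knt kanamycin-resistance gene on pET-22b(+) and held in E. coli BL21(DE3). Cells were grown overnight at 37°C or 30°C on LB agar, with or without 25 μg/mL kanamycin, plus 100 μg/mL carbenicillin, 50 μM IPTG and 0.2% rhamnose, and pooled colonies were amplicon-sequenced on an Illumina HiSeq 2500. DiMSum fitness is the error-weighted combination of wild-type-normalised replicate fold changes, kanamycin versus none.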

± gives the uncertainty stated by the source.

With UGCAAGCAAUAUUACGCUGU, the “self-splicing fitness (ln)” value is -3.03 ± 0.19 (30 °C) and -2.93 ± 0.33 (37 °C).
As to CGCGAGCAAUAUUACGAGGG, the “self-splicing fitness (ln)” value is, setting by setting: (30 °C) -3.3 ± 0.22; (37 °C) -2.71 ± 0.22.
On to UUACAGCAAUAUUACGCGGU, for which the “self-splicing fitness (ln)” value reads like this: (30 °C) -2.9 ± 0.12; (37 °C) -3.15 ± 0.24.
On to AUGUAGCAAUAUUACGUGGA, for which the “self-splicing fitness (ln)” value (30 °C) is -1.58 ± 0.22 and the “self-splicing fitness (ln)” value (37 °C) is -3.15 ± 0.24.
Regarding UAUGAGCAAUAUUACGGCUC, the “self-splicing fitness (ln)” value (37 °C) was -0.823 ± 0.41.
Consider UGCGAGCAAUAUUACGUGUA, for which the “self-splicing fitness (ln)” value is, setting by setting: (30 °C) -2.83 ± 0.11; (37 °C) -1.01 ± 0.1.
For the sequence UCUCAGCAAUAUUACGACCU, the “self-splicing fitness (ln)” value was -1.84 ± 0.18 (30 °C) and -0.921 ± 0.22 (37 °C).
The matching figures for GAUCAGCAAUAUUACGGCUU: -0.164 ± 0.092 and -0.596 ± 0.1.
Turning to ACCCAGCAAUAUUACGAAUA, the “self-splicing fitness (ln)” value runs as follows: (30 °C) -2.29 ± 0.14; (37 °C) -1.19 ± 0.12.
For the sequence UUCUAGCAAUAUUACGCUGA, the “self-splicing fitness (ln)” value was -1.04 ± 0.31 (30 °C) and -0.752 ± 0.25 (37 °C).
The matching figures for UUCAAGCAAUAUUACGUUUG: -3.95 ± 0.34 and -2.31 ± 0.28.
The matching figures for GCCAAGCAAUAUUACGCUAU: -1.23 ± 0.064 and -0.923 ± 0.078.
Regarding GAACAGCAAUAUUACGGCGA, the “self-splicing fitness (ln)” value is, setting by setting: (30 °C) -1.38 ± 0.09; (37 °C) -0.318 ± 0.077.
With GAGGAGCAAUAUUACGAAAC, the “self-splicing fitness (ln)” value is -2.22 ± 0.34 (30 °C) and -1.87 ± 0.33 (37 °C).
The matching figures for UGCAAGCAAUAUUACGGCGG: -0.854 ± 0.046 and -0.116 ± 0.068.
The matching figures for CGCAAGCAAUAUUACGCGUU: -3.9 ± 0.15 and -2.86 ± 0.15.
Take ACGGAGCAAUAUUACGAUCG: the “self-splicing fitness (ln)” value is -0.961 ± 0.088 (30 °C) and -1.14 ± 0.14 (37 °C).
Consider GGCCAGCAAUAUUACGAGUG, for which the “self-splicing fitness (ln)” value is -2.55 ± 0.11 (30 °C) and -1.14 ± 0.093 (37 °C).
Regarding CGGGAGCAAUAUUACGCUAA, for the setting “30 °C”, the “self-splicing fitness (ln)” value is -2.62 ± 0.43.
In the case of UAAUAGCAAUAUUACGACGA, the “self-splicing fitness (ln)” value is -1.41 ± 0.13 (30 °C) and -1.15 ± 0.14 (37 °C).
The matching figures for CGCGAGCAAUAUUACGUUAU: -3.91 ± 0.21 and -3.49 ± 0.3.
Take AUUUAGCAAUAUUACGGUUG: under “30 °C”, the “self-splicing fitness (ln)” value is -2.68 ± 0.39.
Consider CGAGAGCAAUAUUACGCAGA, for which the “self-splicing fitness (ln)” value by setting is: (30 °C) -3.36 ± 0.33; (37 °C) -1.94 ± 0.26.
The matching figures for AAUAAGCAAUAUUACGUCUA: -0.766 ± 0.077 and 0.434 ± 0.1.
In the case of GGACAGCAAUAUUACGCAUC, the “self-splicing fitness (ln)” value reads like this: (30 °C) -3 ± 0.12; (37 °C) -0.76 ± 0.13.
The matching figures for GCUAAGCAAUAUUACGAUAC: -1.9 ± 0.12 and -0.355 ± 0.11.
In the case of CCCCAGCAAUAUUACGGUAU, the “self-splicing fitness (ln)” value runs as follows: (30 °C) -3.72 ± 0.13; (37 °C) -2.88 ± 0.2.
In the case of AUUUAGCAAUAUUACGUACG, the “self-splicing fitness (ln)” value reads like this: (30 °C) -1.48 ± 0.19; (37 °C) -1.66 ± 0.34.
The matching figures for GCAUAGCAAUAUUACGUUGA: -2.41 ± 0.12 and -1.76 ± 0.1.
As to GCUCAGCAAUAUUACGUACA, the “self-splicing fitness (ln)” value was -2.16 ± 0.12 (30 °C) and -0.932 ± 0.14 (37 °C).
For ACUGAGCAAUAUUACGCAAU, the “self-splicing fitness (ln)” value (30 °C) was -2.79 ± 0.28 and the “self-splicing fitness (ln)” value (37 °C) was -2.03 ± 0.27.
The matching figures for GGUUAGCAAUAUUACGCUCC: -1.71 ± 0.39 and 0.76 ± 0.48.
The matching figures for UUUAAGCAAUAUUACGAGGU: -3.65 ± 0.22 and -2.04 ± 0.15.
The matching figures for UCUUAGCAAUAUUACGGGGG: -2.89 ± 0.39 and -2.51 ± 0.3.
For CGGCAGCAAUAUUACGAAAU, the “self-splicing fitness (ln)” value was -3.82 ± 0.33 (30 °C) and -2.76 ± 0.33 (37 °C).
The matching figures for AUCAAGCAAUAUUACGUGAA: -1.73 ± 0.071 and -1.45 ± 0.1.
As for GACCAGCAAUAUUACGGGGU, the “self-splicing fitness (ln)” value was -3.79 ± 0.19 (30 °C) and -1.82 ± 0.14 (37 °C).
For GAGUAGCAAUAUUACGCAAU, the “self-splicing fitness (ln)” value (37 °C) is -2.34 ± 0.31.
ACGCAGCAAUAUUACGUACG: the “self-splicing fitness (ln)” value reads like this: (30 °C) -2.93 ± 0.15; (37 °C) -0.983 ± 0.13.
As for AUCAAGCAAUAUUACGCCGC, the “self-splicing fitness (ln)” value (30 °C) is -2.23 ± 0.34.
As to CACGAGCAAUAUUACGCCCA, the “self-splicing fitness (ln)” value was -1.81 ± 0.4 (30 °C) and -1.72 ± 0.28 (37 °C).
The matching figures for UUUUAGCAAUAUUACGUACG: -2.14 ± 0.37 and -0.297 ± 0.33.
The matching figures for GAUCAGCAAUAUUACGGGCC: -0.0569 ± 0.16 and -0.311 ± 0.18.
AUAAAGCAAUAUUACGUUAG: the “self-splicing fitness (ln)” value by setting is: (30 °C) -1.33 ± 0.067; (37 °C) -0.504 ± 0.088.
CCCCAGCAAUAUUACGAACA: the “self-splicing fitness (ln)” value reads like this: (30 °C) -2.51 ± 0.17; (37 °C) -2.85 ± 0.28.
The matching figures for GCACAGCAAUAUUACGCGGA: -1.51 ± 0.14 and -0.87 ± 0.12.
The matching figures for CUGGAGCAAUAUUACGUCGA: -3.15 ± 0.29 and -2.82 ± 0.34.
The matching figures for GCUCAGCAAUAUUACGUCAA: -1.84 ± 0.16 and -1.77 ± 0.22.
In the case of AGCCAGCAAUAUUACGAGUC, the “self-splicing fitness (ln)” value (37 °C) was -1.61 ± 0.21.
With UUCCAGCAAUAUUACGACGG, the “self-splicing fitness (ln)” value by setting is: (30 °C) -2.74 ± 0.32; (37 °C) -1.98 ± 0.29.
The matching figures for GGCAAGCAAUAUUACGCGAC: -3.25 ± 0.23 and -2.23 ± 0.27.
As for GGAAAGCAAUAUUACGUAUU, the “self-splicing fitness (ln)” value is, setting by setting: (30 °C) -1.25 ± 0.13; (37 °C) -1.45 ± 0.16.
In the case of UAACAGCAAUAUUACGAUCC, the “self-splicing fitness (ln)” value (37 °C) is -2.04 ± 0.42.
Turning to ACGAAGCAAUAUUACGCGAG, the “self-splicing fitness (ln)” value reads like this: (30 °C) -1.48 ± 0.12; (37 °C) -0.723 ± 0.11.
The matching figures for CAGCAGCAAUAUUACGACCG: -0.0535 ± 0.096 and 0.48 ± 0.12.
As to UCCUAGCAAUAUUACGGCAU, the “self-splicing fitness (ln)” value is -3.31 ± 0.17 (30 °C) and -2.2 ± 0.11 (37 °C).
The matching figures for AGGUAGCAAUAUUACGAGUC: -3.864 ± 0.037 and -2.49 ± 0.043.
As for GCGGAGCAAUAUUACGUAUA, the “self-splicing fitness (ln)” value (37 °C) is -2.2 ± 0.44.
In the case of AUCCAGCAAUAUUACGUCCG, the “self-splicing fitness (ln)” value by setting is: (30 °C) -2.45 ± 0.17; (37 °C) -1.04 ± 0.15.
The matching figures for GUCAAGCAAUAUUACGUAGU: -1.21 ± 0.068 and -0.468 ± 0.1.
Turning to CGUGAGCAAUAUUACGCAUA, the “self-splicing fitness (ln)” value is -3.2 ± 0.28 (30 °C) and -1.18 ± 0.34 (37 °C).
CCCGAGCAAUAUUACGGGAC: the “self-splicing fitness (ln)” value was -3.05 ± 0.18 (30 °C) and -1.89 ± 0.19 (37 °C).
In the case of CUACAGCAAUAUUACGCUAG, the “self-splicing fitness (ln)” value was -3.58 ± 0.18 (30 °C) and -2.36 ± 0.23 (37 °C).
The matching figures for CCCAAGCAAUAUUACGCGUU: -4.28 ± 0.18 and -1.74 ± 0.12.
The matching figures for AACCAGCAAUAUUACGGCUU: -0.621 ± 0.056 and 0.209 ± 0.082.
The matching figures for GACGAGCAAUAUUACGAGUG: -4.04 ± 0.31 and -2.63 ± 0.19.
On to AAUGAGCAAUAUUACGCAGC, for which the “self-splicing fitness (ln)” value (30 °C) was -3.14 ± 0.44 and the “self-splicing fitness (ln)” value (37 °C) is -2.54 ± 0.36.
Turning to AGCUAGCAAUAUUACGGCUU, the “self-splicing fitness (ln)” value is -3.43 ± 0.21 (30 °C) and -2.62 ± 0.23 (37 °C).
The matching figures for GCGAAGCAAUAUUACGAUGA: -1.1 ± 0.11 and 0.105 ± 0.098.
As to GACCAGCAAUAUUACGGCCA, the “self-splicing fitness (ln)” value was -0.323 ± 0.077 (30 °C) and 0.208 ± 0.13 (37 °C).
GUAAAGCAAUAUUACGAUUG: the “self-splicing fitness (ln)” value is, setting by setting: (30 °C) -2.98 ± 0.18; (37 °C) -0.942 ± 0.22.
The matching figures for ACUCAGCAAUAUUACGAGGG: -1.85 ± 0.08 and -1.41 ± 0.1.
The matching figures for AUCUAGCAAUAUUACGCAUA: -2.4 ± 0.18 and -1.69 ± 0.15.
As to CUCUAGCAAUAUUACGUCCC, the “self-splicing fitness (ln)” value by setting is: (30 °C) -2.69 ± 0.27; (37 °C) -3.71 ± 0.39.
GGACAGCAAUAUUACGUAGC: the “self-splicing fitness (ln)” value (30 °C) is -0.679 ± 0.084 and the “self-splicing fitness (ln)” value (37 °C) was -0.618 ± 0.098.
The matching figures for GCCCAGCAAUAUUACGCGUG: -3.68 ± 0.13 and -2.41 ± 0.12.
In the case of AGGUAGCAAUAUUACGGGAG, the “self-splicing fitness (ln)” value (30 °C) is -3.83 ± 0.03 and the “self-splicing fitness (ln)” value (37 °C) was -2.39 ± 0.038.
